Assay: label from the status in PepcDB records

Sequence | protein production
SINKVLDHFRRKGINQHVQNGYHGIVMNNFECEPAFYTCVEVTAGNRLFYHIVDSDEVSTKILMEFNKMNLPGEVTFLPLNKLDVRDTAYPETNDAIPMISKLRYNPRFDKAFKHVFGKTLICRSMEVSTQLARAFTMDCITLEGDQVSHRGALTGGYYDTRKSRLELQKDVRKAEEELGELEA | failed
MKITGTVVKLGIVSVVLLFFTVMIIVIFGQMRFDRTNGYTAEFSNVSGLRQGQFVRASGVEIGKVKALHLVDGGRRVRVEFNIDRSVPLYQSTTAQIRYSDLIGNRYVELKRGEGKGANDLLPPGGLIPLSRTSPALDLDALIGGFKPVFRALDPAKVNNIANALITVFQGQGGTINDTLDQTAQLTSQIAERDQAIGEVVKNLNIVLDTTVKHRKEFDETVNNLENLITGLRNHSDQLAGGLAHISNGAGTVADLLAENRTLVRKAVSYLDAIQQPVIDQRVELDDLLHKTPTALTALGRANGTYGDFQNFYLCDLQIKWNGFQAGGPVRTVKLFSQPTGRCTPQ | failed
MPYDTSNNTLIVSTRNHQDDDETAIVDDLQRLVNYQISDGGNINHQYFQIAQQFHHTQQQNANANALQLVAAATTATTLMPQTQAALAMNMIPAGTIPNNALWDMWNPIVPDGNRDHYTNIPFK | failed
MIKFYQYKNCTTCKKAAKFLDEYGVSYEPIDIVQHTPTINEFKTIIANTGVEINKLFNTHGAKYRELDLKNKLQTLSDDEKLELLSSDGMLVKRPLAVMGDKITLGFKEDQYKETW | not failed
ENGRYEYIVIGSEAAGVGLVRELTAAGKKVLAVDKSKEKIELLEDEGFDAVIADPTDESFYRSLDLEGVSAVLITGSDDEFNLKILKALRSVSDVYAIVRVSSPKKKEEFEEAGANLVVLVADAVKQAFMDKIKKMETL | not failed
MAPLNYKTITSRSILSKVLVRATQQWPTDKTLNKQLSELYGAYVNSFVSKFKDKHVITISLEVVNEKFLKDKTPLFEKGLDTLKEIIWNPLIKDRCFDHTYVAQEKSLLSKKLEAMEDNKAQYSFLQLMNYMFKQEPYRYIATGQLEQIPQVTSESLYDTYLSMVQNDDCAIYVVGNINKEEVTQLILDKFAIKPFYLENKESTEITPSFDQPQYIIEKDDVDQAKLNLGYRFPSYYGKSNYYAFIVLNMMFGGDPSSVLFNEVREKQSLAYSIHSQIDGKNGFLFVLSGVSAEKYEQAKDTVIKEFDKIKNGDFDSNKIELAKKIIISHRHEASDRPKSIIEILHNQLLLNRQQTDQDFINAVNQVTKKDVIKLANEAVLDTIYVLTKGDQH | failed
MSLRGELRVGLEPGYLPFEMKDKKGNVIGFDVDLAREMAKAMGVKLKLVPTSWDGLIPGLVTEKFDIIISGMTISQERNLRVNFVEPYIVVGQSLLVKKGLEKGVKSYKDLDKPELTLVTKFGVSAEYAAKRLFKNAKLKTYDTEAEAVQEVLNGKADMFIFDLPFNVAFMAQKGQGYLVHLDTSLTYEPLGWAIKKGDPDFLNWLNHFLAQIKHDGSYDELYERWFVDTKWLEKIQEGHHHHHH | not failed
MCSFFKKKLCIFFFILGNVVGWSSCVWGHLGSQYTIIGQSVISHSIDEIIQKQQQIIKILEQEIKNLQKDFANESANEYALAKVRLRARDINKRAIEAAFVLRNPLNDINVLLDQLKELQDEPKNLKERSHLIKKKAQINNMVLQFEEIFLATNKIVELSLSQSRELFKRTFKNRLEFSIPMLKYSVEKMKEASSDFLFLFSSWCKFVFHFKFLQLFLSFLVPLFVALGLSYFSRKVLAHVNCYFTKGNEEISYLQRLLVAFISILLPLLVCVVCVYLVFFLFHSFGMELGKLTTIFYTVGHQIILVFLINRLALVLLSLNMVHVRLFNITPFVAHQLVILLTFLGGILAFDAVLDSIYQVVSASLSLTIAKSFIAVFLFAILLFIISFVPLRFRRKSSQNEERETHFLPLYIRIPFIVLGLLLIVMDSLGYVGLAHFIMQQIVIGGAFLVLMYLGIKSAQVIGTKGQFMKTSVGHALMQWFHLEEKTMNKLGIVISVVLNLIVVILCAMPIAVQFGFSYSDLRRVLLQVMTGFQIGNISVSLISIVIGIIAFFACWFLNRRFICWLDGMVLVHGEFDSGVRNSIKTVISYAGVVVSALIGLSMAGLDLKNFALIAGGLSLGIGFGLQNIVQNFVSGLIILIGRPFKLGDYVEAGSVGGIVKRISVRATELETFQRKTIIIPNSSLINNNVSNWTRGSKMGRVDIPIVVSPNVAPERVVEILLEIASTTEGVLKNPAPQVSFTAFDSKKFSFSLAVYVPNITSSFKVTNALHFVLYKRFVQEGILEC | failed
MAGHSHWAQIKHKKAKVDAQRGKLFSKLIREIIVATRLGGPNPEFNPRLRTAIEQAKKANMPWENIERAIKKGAGELEGEQFEEVIYEGYAPGGVAVMVLATTDNRNRTTSEVRHVFTKHGGNLGASGCVSYLFERKGYIEVPAKEVSEEELLEKAIEVGAEDVQPGEEVHIIYTVPEELYEVKENLEKLGVPIEKAQITWKPISTVQINDEETAQKVIKLLNALEELDDVQQVIANFEIPEEILQKVG | not failed
MLFIAFAPFGAFALEANSKNDGYSLDDIKYYKIFENEDIPKIMYALRQGDFEIIAELKNEWEIEEEDVSFEYTTSKNPLGELIRDNLYELGQKYEVFEDESDFVSKMNVWATAFTKSMMKKSSEQKDKLIVQTVNALDNLDETLNLFSERLREWYSLYFPEMDNIVKKHDIYVSLVSEYGDREEYTRTKLKKTMPSNVARTISLAAKESMGADVSEFDLKIMKNLADEIKSMYEYRESLQEYLETSMNEIAPNLTKVAGASLGARLISLAGGIERLLRLPASTIQVIGAEKALFAHLRERALPPKHGVIFQHPLIQGSPWWIHGKIARAISCKISIAIRADAFGNDISDMLIEDMNKKVAEIKEKFPEPTRKRRPRPDTRSFGNKGGQDRDRRSQGDRKPSGNRGDSKKGGKPFGKKPAGKDDRRDNRKGDRKPFGGKPKNSGNQPPKERSGEKRRDSTKKVKAERKVIGKTSSQNLEHHHHHH | not failed
MSIQMATSNDLEWINNQYDSIGFVRSDLKRDKVAIITYNNEYAGIGRLVQIDEDTLEMGGILILPKFRGLQLAGELVSFLVETAKKLQVQHVYCLPFEELENFYKKYGYTEVDTTKEFVHPIILEKYNWCLDHYEKHVLLFKL | failed
MERRLAAILIADVVGYSRLSQIDEEGTRARFQADQNDVFEPAIERHHGRLVKTMGDGLLVEFQSVVDALRCAVEVQQLKATQSAASLPEHRLEFRIGINLGDIIVEGEDIQGDGVNIADRIQALAEPGGIAISGTTYDQVKSKIPVGFASLGEQRLKSITEPIRVYRILLDPTAAGKTLKTRRRLPRRRLVAGIAAAIVVLALAGAALWWQPWMPAKPPGPGERFAYPLPDRPSVAVLPFINVSGDSEHDHLAEGLTDDLITELSKVSGLFVIARHSVFAIQGSVGKIQDVATELGVQYVLEGTLQRAGPRLRINVKLIDAVSGLSLWAERYDRQYADLFAVQDDVIGKIISALSVKLSARERDQLARIPTENLEAYDFYMRAEQEGFILRDVDTYRRTLSFYQKAIDLDPGFANAHAGIARVAVDVWRNDYNYLWSAAVARKIAYDAAGQALKLDPNNARAHTVLALLQWVDGRETEAKNSANMAVAMEPNDAEAAANLALILVHTGSSGQAITEMEKALRLDPSPASSFQLLAGIVFYTAGDDQRAISLIEPTLDSLPKVEPAREYLAAAYADQGNETKAAAETAKLLELFPEGNLTYYGYLYDYWRDGDLQRHLAALRKAGIPEWPFGFTGSQADRLGEADLRNLVDGKSWTGKHKNGTDFTQYFDRAGNTAYRSANTNITGIVEVRGDSLCEKFEGYFLDRMVCGYVYRNTSGEQRDRPYVHVTPRALTFFSPTP | failed
RDIGKESLEKAPEVELVNSAEEGNAVVLDIRSPDEEDESPLEIVGVEVKHLPFYKLATQFGDLDQSKTYLLYCSRGVMSRLQALYLQEQGFNNVKVYR | failed
MNDPMGETGFSRESAPEIVFSETDMAAAEQLMHLSEEETVSCSSSTGGDCGGGGGDKIKHEYVSSRIGNELNDGVRGNSILGVEKKRKRTVMKEKKFRSLESIYKGTKEIRD | failed
MDSEGFSPSIYTDKTGHPTIGYGYNLSVYSYEGKRITKTYGLLTDILSYGWYKNLDAMRRMVILDLSYNLGLNGLLKFKQFIKAIEDKNYALAVERLQKSPYFNQVKKERQGIWKF | failed
LRQQRLIWVVLALSCVIVISLLMLWRYTRFRSEAEAALIAETGFRRAMENSMSTGMRVLDMEGRIAYVNPAFCRMIGWNEADLIGRSPPFPYWVPGRHDQHQHTLEVLTSGKTPSSGLEVEAQRRDGSRFTARMYVSPLLDPNGDQIGWMTSMTDIT | failed

Source: a protein production outcome set (Wang et al. 2014)
